Data: patent US12146152B2, “Systems, methods, and compositions for correction of frameshift mutations” (Massachusetts Institute of Technology, priority 2019, dated 2024)
Values belong to the molecule of their own block, whether it stands above or below them.

Columns and labels:
Type in all cases: cell-based
[1] = test system: PCSK9 exon 12; experiment: Indels editing in PCSK9 gene using Cas9 and blunting enzymes; settings: HEK293T cells, Cas9 + PCSK9 exon 12 sgRNA + blunting enzyme; for percentage of +1 insertion: Cas9 and sgRNA alone 14.4%; for percentage of +1 insertion / percentage of −1 deletion: FIGS. 11A-11H; for percentage of −1 deletion: Cas9 and sgRNA alone 4.3%; for +1 insertion frequency: control 9.4%, FIGS. 12A-12B
Method: (§1) To test for the efficiency of inducing indels in a target gene using Cas9 and blunting enzymes, Cas9 and PCSK9 exon 12 targeting sgRNA were co-transferred into cultured mammalian cells in combination with DNA polymerase μ (POLM), EXOG, T4 DNA polymerase (T4pol), DNA polymerase λ (POLL), MGME1, RecJ exonuclease (RecJ) or Nuclease S1 (nucS). Cas9 and sgRNA alone served as the negative control. The occurrence of indels for the control and each of the combinations was measured. HEK293T cells were used.
Results for each of the combinations are presented in FIGS. 11A-11H and comparisons between the control and blunting enzymes are presented in FIGS. 12A-12B.

[2] = test system: GYPB gene; experiment: Indels editing in GYPB gene using Cas9 and blunting enzymes; settings: cultured mammalian cells, Cas9 + GYPB sgRNA + blunting enzyme; for percentage of +1 insertion mutations: Cas9 and sgRNA alone 10.5%, FIGS. 13A-13H
Method: as §1, with “GYPB” for “PCSK9 exon 12”, “measured.” for “measured. HEK293T cells were used.”

[3] = test system: TPH2 exon 9; experiment: Indels editing in TPH2 gene using Cas9 and blunting enzymes; settings: cultured mammalian cells, Cas9 + TPH2 sgRNA + blunting enzyme; for percentage of +1 insertion mutations: Cas9 and sgRNA alone 0%, FIGS. 14A-14H
Method: as §1, with “TPH2” for “PCSK9 exon 12”, “POLM,” for “DNA polymerase μ (POLM),”, “polymerase,” for “DNA polymerase (T4pol),”, “measured.” for “measured. HEK293T cells were used.”

Molecule: POLM: DNA polymerase μ, DSB-end blunting enzyme co-transferred with Cas9 and sgRNA (AIYLVEPRMGRSRRAFLTGLARSKGFRVLDA)
- percentage of +1 insertion [1]: 19.6%
- percentage of +1 insertion mutations [2]: 13.7%
- percentage of +1 insertion mutations [3]: 12.5%

B2: MGME1: single-strand DNA specific nuclease, blunting enzyme co-transferred with Cas9 and sgRNA (protein)
chain: LQQTMTKQQVFLLERWKQRMILELGEDGFKEYTSSFHVCDHVYMKNLARDVFLQGKRFHEALESILSPQETLKERDENLLKSGYIESVQHILKDVSGVRALESAVQHETLNYIGLLDCVAEYQGKLCVIDWKTSEKPKPFIQSTFDNPLQVVAYMGAMNHDTNYSFQVQCGLIVVAYKDGSPAHPHFMDAELCSQYWIKWLLRLEEYTEKKKNQNIQKPEYSE
- percentage of −1 deletion [1]: 6.35%

B3: POLL: DNA polymerase λ, DSB-end blunting enzyme co-transferred with Cas9 and sgRNA (protein)
chain: CLQERRLVDVAGFSIFIPSRYLDHPQPSKAEQDASIPPGTHEALLQTALSPPPPPTRPVSPPQKAKEAPNTQAQPISDDEASDGEETQVSAADLEALISGHYPTSLEGDCEPSPAPAVLDKWVCAQPSSQKATNHNLHITEKLEVLAKAYSVQGDKWRALGYAKAINALKSFHKPVTSYQEACSIPGIGKRMAEKIIEILESGHLRKLDHISESVPVLELFSNIWGAGTKTAQMWYQQGFRSLEDIRSQASLTTQQAIGLKHYSDFLERMPREEATEIEQTVQKAAQAFNSGLLCVACGSYRRGKATCGDVDVLITHPDGRSHRGIFSRLLDSLRQEGFLTDDLVSQEENGQQQKYLGVCRLPGPGRRHRRLDIIVVPYSEFACALLYFTGSAHFNRSMRALAKTKGMSLSEHALSTAVVRNTHGCKVGPGRVLPTPTEKDVFRLLGLPYREPAERDW
- percentage of +1 insertion [1]: 39.55%
- +1 insertion frequency [1]: 35.0%
- percentage of +1 insertion mutations [2]: 22.1%
- percentage of +1 insertion mutations [3]: 2.95%

Now from value to molecule:

- percentage of −1 deletion [1]: 5.5%
B1: RecJ: RecJ exonuclease, blunting enzyme co-transferred with Cas9 and sgRNA (protein)
chain: TVDNGISSHAGVEHARSLGIPVIVTDHHLPGDTLPAAEAIINPNLRDCNFPSKSLAGVGVAFYLMLALRTFLRDQGWFDERNIAIPNLAELLDLVALGTVADVVPLDANNRILTWQGMSRIRAGKCRPGIKALLEVANRDAQKLAASDLGFALGPRLNAAGRLDDMSVGVALLLCDNIGEARVLANELDALNQTRKEIEQGMQIEALTLCEKLERSRDTLPGGLAMYHPEWHQGVVGILASRIKERFHRPVIAFAPAGDGTLKGSGRSIQGLHMRDALERLDTLYPGMMLKFGGHAMAAGLSLEEDKFKLFQQRFGELVTEWLDPSLLQGEVVSDGPLSPAEMTMEVAQLLRDAGPWGQMFPEPLFDGHFRLLQQRLVGERHLKVMVEPVGGGPLLDGIAFNVDTALWPDNGVREVQLAYKLDINEFRGNRSLQIIIDNIWPI

- percentage of −1 deletion [1]: 5.05%
B4: EXOG: single-strand DNA specific nuclease, blunting enzyme co-transferred with Cas9 and sgRNA (protein)
chain: WSRGHMAPAGNNKFSSKAMAETFYLSNIVPQDFDNNSGYWNRIEMYCRELTERFEDVWVVSGPLTLPQTRGDGKKIVSYQVIGEDNVAVPSHLYKVILARRSSVSTEPLALGAFVVPNEAIGFQPQLTEFQVSLQDLEKLSGLVFFPHLDRTSDIRNICSVDTCKLLDFQEFTLYLSTRKIEGARSVLRLEKIMENLKNAEIEPDDYFMSRYEKKLEELKAKEQSGTQIRKPS

- percentage of +1 insertion [1]: 36.75%
- +1 insertion frequency [1]: 30.3%
- percentage of −1 deletion mutations ([2]; Cas9 and sgRNA alone 1.7%, FIG. 13D): 9.05%
- percentage of +1 insertion mutations [2]: 13.4%
- percentage of −1 deletion mutations ([3]; Cas9 and sgRNA alone 13.2%, FIG. 14D): 36.7%
B5: T4pol: T4 DNA polymerase, DSB-end blunting enzyme co-transferred with Cas9 and sgRNA (protein, UniProt P04415 1-898, looked up)
DNA-directed DNA polymerase: MKEFYISIETVGNNIVERYIDENGKERTREVEYLPTMFRHCKEESKYKDIYGKNCAPQKFPSMKDARDWMKRMEDIGLEALGMNDFKLAYISDTYGSEIVYDRKFVRVANCDIEVTGDKFPDPMKAEYEIDAITHYDSIDDRFYVFDLLNSMYGSVSKWDAKLAAKLDCEGGDEVPQEILDRVIYMPFDNERDMLMEYINLWEQKRPAIFTGWNIEGFDVPYIMNRVKMILGERSMKRFSPIGRVKSKLIQNMYGSKEIYSIDGVSILDYLDLYKKFAFTNLPSFSLESVAQHETKKGKLPYDGPINKLRETNHQRYISYNIIDVESVQAIDKIRGFIDLVLSMSYYAKMPFSGVMSPIKTWDAIIFNSLKGEHKVIPQQGSHVKQSFPGAFVFEPKPIARRYIMSFDLTSLYPSIIRQVNISPETIRGQFKVHPIHEYIAGTAPKPSDEYSCSPNGWMYDKHQEGIIPKEIAKVFFQRKDWKKKMFAEEMNAEAIKKIIMKGAGSCSTKPEVERYVKFSDDFLNELSNYTESVLNSLIEECEKAATLANTNQLNRKILINSLYGALGNIHFRYYDLRNATAITIFGQVGIQWIARKINEYLNKVCGTNDEDFIAAGDTDSVYVCVDKVIEKVGLDRFKEQNDLVEFMNQFGKKKMEPMIDVAYRELCDYMNNREHLMHMDREAISCPPLGSKGVGGFWKAKKRYALNVYDMEDKRFAEPHLKIMGMETQQSSTPKAVQEALEESIRRILQEGEESVQEYYKNFEKEYRQLDYKVIAEVKTANDIAKYDDKGWPGFKCPFHIRGVLTYRRAVSGLGVAPILDGNKVMVLPLREGNPFGDKCIAWPSGTELPKEIRSDVLSWIDHSTLFQKSFVKPLAGMCESAGMDYEEKASLDFLFG
